{"source": "the supplement of paper PMC6755084", "parents": {"B1": {"name": "minF1; the commonest letter at each place (parent)", "chain": "GAGACCGCAACTGAAAAGTTGTTATCAGAAATGGATGGGTTGAATTTCTGCACGTAGAAGCAAAAGGC"}}}
{"variants_of": "B1", "test": "fraction ligated after 30 min (ligated reads / total reads); higher = more ligase activity", "details": "with F1*subA RNA substrate (template-directed ligation), 42 °C", "in_short": "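Ligated and unligated RNAs from a pool of minimized ligase ribozyme variants were separated on gels, reverse transcribed with barcoded primers and sequenced on a MiSeq. Core bases needed quality ≥30 to pass the filter. Each variant's fraction ligated was then taken as ligated reads over total reads.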"}
{"variant": "C26A A43C", "fraction ligated": 0.00276}
{"variant": "T25G A43T", "fraction ligated": 0.00824}
{"variant": "T25G A43C", "fraction ligated": 0.00324}
{"variant": "T25G A43G", "fraction ligated": 0.00372}
{"variant": "G28A A29C", "fraction ligated": 0.83}
{"variant": "G28A A29T", "fraction ligated": 0.822}
{"variant": "G28A A29G", "fraction ligated": 0.835}
{"variant": "C26T A31C", "fraction ligated": 0.312}
{"variant": "C26T A31G", "fraction ligated": 0.52}
{"variant": "C26T A31T", "fraction ligated": 0.404}
{"variant": "C26A T32G", "fraction ligated": 0.00324}
{"variant": "C26A T32C", "fraction ligated": 0.0036}
{"variant": "C26A T32A", "fraction ligated": 0.00455}
{"variant": "G28A A35G", "fraction ligated": 0.246}
{"variant": "G28A A35T", "fraction ligated": 0.0165}
{"variant": "G28A A35C", "fraction ligated": 0.0346}
{"variant": "C26G G42C", "fraction ligated": 0.00152}
{"variant": "C26G G42A", "fraction ligated": 0.00168}
{"variant": "C26G G42T", "fraction ligated": 0.00229}
{"variant": "A27T A44G", "fraction ligated": 0.825}
{"variant": "A27T A44C", "fraction ligated": 0.766}
{"variant": "A27T A44T", "fraction ligated": 0.827}
{"variant": "C26T G28C", "fraction ligated": 0.61}
{"variant": "C26T G28T", "fraction ligated": 0.55}
{"variant": "C26T G28A", "fraction ligated": 0.362}
{"variant": "T25C G33T", "fraction ligated": 0.0306}
{"variant": "T25C G33C", "fraction ligated": 0.0119}
{"variant": "A27C G28T", "fraction ligated": 0.628}
{"variant": "A27C G28A", "fraction ligated": 0.503}
{"variant": "A27C G28C", "fraction ligated": 0.61}
{"variant": "A27C T32C", "fraction ligated": 0.0159}
{"variant": "A27C T32G", "fraction ligated": 0.0136}
{"variant": "A27C T32A", "fraction ligated": 0.0275}
{"variant": "A27T G42T", "fraction ligated": 0.444}
{"variant": "A27T G42C", "fraction ligated": 0.0569}
{"variant": "A27T G42A", "fraction ligated": 0.698}
{"variant": "T25G G33A", "fraction ligated": 0.0162}
{"variant": "T25G G33C", "fraction ligated": 0.00397}
{"variant": "T25G G33T", "fraction ligated": 0.0188}
{"variant": "C26T A43G", "fraction ligated": 0.0095}
{"variant": "C26T A43T", "fraction ligated": 0.0127}
{"variant": "C26T A43C", "fraction ligated": 0.00569}
{"variant": "A27T G34A", "fraction ligated": 0.285}
{"variant": "A27T G34C", "fraction ligated": 0.00507}
{"variant": "A27T G34T", "fraction ligated": 0.00294}
{"variant": "C26T G42C", "fraction ligated": 0.00245}
{"variant": "C26T G42T", "fraction ligated": 0.00392}
{"variant": "C26T G42A", "fraction ligated": 0.0165}
{"variant": "A27C G37T", "fraction ligated": 0.0224}
{"variant": "A27C G37A", "fraction ligated": 0.0106}
{"variant": "A27C G37C", "fraction ligated": 0.004}
{"variant": "G28A", "fraction ligated": 0.809}
{"variant": "A27T A30C", "fraction ligated": 0.822}
{"variant": "A27T A30T", "fraction ligated": 0.834}
{"variant": "A27T A30G", "fraction ligated": 0.851}
{"variant": "T25G A27T", "fraction ligated": 0.0947}
{"variant": "T25G A27G", "fraction ligated": 0.0208}
{"variant": "T25G A27C", "fraction ligated": 0.0754}
{"variant": "C26A G42C", "fraction ligated": 0.00168}
{"variant": "C26A G42T", "fraction ligated": 0.00182}
{"variant": "C26A G42A", "fraction ligated": 0.00533}
{"variant": "A27G G37T", "fraction ligated": 0.0232}
{"variant": "A27G G37A", "fraction ligated": 0.00716}
{"variant": "A27G G37C", "fraction ligated": 0.00672}
{"variant": "A27G G42C", "fraction ligated": 0.0187}
{"variant": "A27G G42A", "fraction ligated": 0.361}
{"variant": "A27G G42T", "fraction ligated": 0.16}
{"variant": "C26A A31T", "fraction ligated": 0.0701}
{"variant": "C26A A31G", "fraction ligated": 0.102}
{"variant": "C26A A31C", "fraction ligated": 0.0417}
{"variant": "A27T G37T", "fraction ligated": 0.0547}
{"variant": "A27T G37C", "fraction ligated": 0.00946}
{"variant": "A27T G37A", "fraction ligated": 0.0217}
{"variant": "A27T T32C", "fraction ligated": 0.0794}
{"variant": "A27T T32G", "fraction ligated": 0.0604}
{"variant": "A27T T32A", "fraction ligated": 0.0711}
{"variant": "A27T G33T", "fraction ligated": 0.737}
{"variant": "A27T G33A", "fraction ligated": 0.829}
{"variant": "A27T G33C", "fraction ligated": 0.822}
{"variant": "T25C T36C", "fraction ligated": 0.00974}
{"variant": "T25C T36G", "fraction ligated": 0.0541}
{"variant": "T25C T36A", "fraction ligated": 0.0394}
{"variant": "T25G", "fraction ligated": 0.0165}
{"variant": "C26A G33A", "fraction ligated": 0.19}
{"variant": "C26A G33T", "fraction ligated": 0.0279}
{"variant": "C26A G33C", "fraction ligated": 0.0427}
{"variant": "C26T A35T", "fraction ligated": 0.0022}
{"variant": "C26T A35G", "fraction ligated": 0.0104}
{"variant": "C26T A35C", "fraction ligated": 0.00406}
{"variant": "C26G A29T", "fraction ligated": 0.0347}
{"variant": "C26G A29C", "fraction ligated": 0.0431}
{"variant": "C26G A29G", "fraction ligated": 0.0311}
{"variant": "C26G G33T", "fraction ligated": 0.0124}
{"variant": "C26G G33C", "fraction ligated": 0.00704}
{"variant": "C26G G33A", "fraction ligated": 0.0636}
{"variant": "C26A A30G", "fraction ligated": 0.216}
{"variant": "C26A A30T", "fraction ligated": 0.0695}
{"variant": "C26A A30C", "fraction ligated": 0.0463}
{"variant": "C26T A29G", "fraction ligated": 0.417}
{"variant": "C26T A29T", "fraction ligated": 0.43}
{"variant": "C26T A29C", "fraction ligated": 0.39}
{"variant": "A27G A35G", "fraction ligated": 0.332}
{"variant": "A27G A35C", "fraction ligated": 0.0489}
{"variant": "A27G A35T", "fraction ligated": 0.0618}
{"variant": "C26G A43T", "fraction ligated": 0.00299}
{"variant": "C26G A43G", "fraction ligated": 0.00467}
{"variant": "C26G A43C", "fraction ligated": 0.00457}
{"variant": "A27T G28C", "fraction ligated": 0.765}
{"variant": "A27T G28A", "fraction ligated": 0.825}
{"variant": "A27T G28T", "fraction ligated": 0.833}
{"variant": "C26T G34A", "fraction ligated": 0.623}
{"variant": "C26T G34C", "fraction ligated": 0.00303}
{"variant": "C26T G34T", "fraction ligated": 0.0063}
{"variant": "C26G G28T", "fraction ligated": 0.0589}
{"variant": "C26G G28A", "fraction ligated": 0.0283}
{"variant": "C26G G28C", "fraction ligated": 0.0331}
{"variant": "A27C A30T", "fraction ligated": 0.403}
{"variant": "A27C A30C", "fraction ligated": 0.465}
{"variant": "A27C A30G", "fraction ligated": 0.759}
{"variant": "A27T A43T", "fraction ligated": 0.412}
{"variant": "A27T A43G", "fraction ligated": 0.281}
{"variant": "A27T A43C", "fraction ligated": 0.336}
{"variant": "C26A A44T", "fraction ligated": 0.0723}
{"variant": "C26A A44G", "fraction ligated": 0.03}
{"variant": "C26A A44C", "fraction ligated": 0.0236}
{"variant": "C26G T32G", "fraction ligated": 0.00509}
{"variant": "C26G T32A", "fraction ligated": 0.00367}
{"variant": "C26G T32C", "fraction ligated": 0.00208}
{"variant": "T25G A31T", "fraction ligated": 0.0111}
{"variant": "T25G A31C", "fraction ligated": 0.0154}
{"variant": "T25G A31G", "fraction ligated": 0.0115}
{"variant": "T25G A30T", "fraction ligated": 0.0162}
{"variant": "T25G A30G", "fraction ligated": 0.0222}
{"variant": "T25G A30C", "fraction ligated": 0.0106}
{"variant": "A27C A35G", "fraction ligated": 0.112}
{"variant": "A27C A35T", "fraction ligated": 0.176}
{"variant": "A27C A35C", "fraction ligated": 0.481}
{"variant": "T25G T36A", "fraction ligated": 0.0107}
{"variant": "T25G T36G", "fraction ligated": 0.0257}
{"variant": "T25G T36C", "fraction ligated": 0.00768}
{"variant": "C26G A27T", "fraction ligated": 0.0725}
{"variant": "C26G A27G", "fraction ligated": 0.0369}
{"variant": "C26G A27C", "fraction ligated": 0.0501}
{"variant": "C26T A27G", "fraction ligated": 0.544}
{"variant": "C26T A27T", "fraction ligated": 0.816}
{"variant": "C26T A27C", "fraction ligated": 0.79}
{"variant": "A27G T36G", "fraction ligated": 0.0614}
{"variant": "A27G T36C", "fraction ligated": 0.0221}
{"variant": "A27G T36A", "fraction ligated": 0.0472}
{"variant": "C26A A29G", "fraction ligated": 0.0844}
{"variant": "C26A A29C", "fraction ligated": 0.0944}
{"variant": "C26A A29T", "fraction ligated": 0.112}
{"variant": "C26A T36A", "fraction ligated": 0.0039}
{"variant": "C26A T36G", "fraction ligated": 0.0133}
{"variant": "C26A T36C", "fraction ligated": 0.00707}
{"variant": "C26G A35T", "fraction ligated": 0.000597}
{"variant": "C26G A35C", "fraction ligated": 0.00486}
{"variant": "C26G A35G", "fraction ligated": 0.00566}
{"variant": "G28A A31G", "fraction ligated": 0.799}
{"variant": "G28A A31C", "fraction ligated": 0.802}
{"variant": "G28A A31T", "fraction ligated": 0.821}
{"variant": "T25C G42A", "fraction ligated": 0.00331}
{"variant": "T25C G42C", "fraction ligated": 0.00383}
{"variant": "T25C G42T", "fraction ligated": 0.00269}
{"variant": "C26G G37C", "fraction ligated": 0.00497}
{"variant": "C26G G37T", "fraction ligated": 0.00384}
{"variant": "C26G G37A", "fraction ligated": 0.00254}
